# T1: FcγRIIb extracellular domain with C-terminal His tag (human, UniProt P31994 43-217)
# T1 construct: extracellular domain; also called FcgRIIb; 2b
# T1 sequence (looked up): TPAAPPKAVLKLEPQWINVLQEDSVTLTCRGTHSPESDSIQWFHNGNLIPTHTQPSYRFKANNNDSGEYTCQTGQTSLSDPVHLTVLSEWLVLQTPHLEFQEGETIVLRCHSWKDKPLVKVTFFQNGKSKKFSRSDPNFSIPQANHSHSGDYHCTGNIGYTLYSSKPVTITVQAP
# B1: GpH7-B3 variant P331_03V/GpL16-k0 (antibody, human IgG1, kappa)
# heavy: not shown
# light: DIVMTQSPLSLPVTPGEPASISCQASESLVHSNRNTYLHWYLQKPGQSPQLLIYKVSNRFSGVPDRFSGSGSGTDFTLKISRVEAEDVGVYYCSQNTHVPPTFGQGTKVEIERTVAAPSVFIFPPSDEQLKSGTASVVCLLNNFYPREAKVQWKVDNALQSGNSQESVTEQDSKDSTYSLSSTLTLSKADYEKHKVYACEVTHQGLSSPVTKSFNRGEC
# notes: also called Ho Ab P331_03V
# B2: GpH7-B3 variant N325_20W/GpL16-k0 (antibody, human IgG1, kappa)
# heavy: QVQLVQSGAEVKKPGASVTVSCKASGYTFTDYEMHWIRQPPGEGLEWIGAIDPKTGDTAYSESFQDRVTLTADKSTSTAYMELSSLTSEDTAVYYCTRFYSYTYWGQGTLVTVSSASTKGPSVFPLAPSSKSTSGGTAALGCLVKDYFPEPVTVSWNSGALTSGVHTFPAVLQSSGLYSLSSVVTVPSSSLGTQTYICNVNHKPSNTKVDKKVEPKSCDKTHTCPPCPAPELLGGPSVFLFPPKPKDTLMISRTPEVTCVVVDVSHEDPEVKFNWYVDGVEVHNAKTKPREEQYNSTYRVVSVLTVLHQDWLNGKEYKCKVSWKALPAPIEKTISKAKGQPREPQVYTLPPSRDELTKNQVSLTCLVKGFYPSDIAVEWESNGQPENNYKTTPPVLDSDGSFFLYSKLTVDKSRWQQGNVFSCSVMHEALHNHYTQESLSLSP
# light: B1 light
# notes: also called Ho Ab N325_20W
# B3: GpH7-B3 variant P331_16H/GpL16-k0 (antibody, human IgG1, kappa)
# heavy: not shown
# light: B1 light
# notes: also called Ho Ab P331_16H
# B4: GpH7-B3 variant P238_10E/GpL16-k0 (antibody, human IgG1, kappa)
# heavy: not shown
# light: B1 light
# notes: also called Ho Ab P238_10E
# B5: GpH7-B3 variant P331_07I/GpL16-k0 (antibody, human IgG1, kappa)
# heavy: not shown
# light: B1 light
# notes: also called Ho Ab P331_07I
# B6: GpH7-B3 variant L328_09D/GpL16-k0 (antibody, human IgG1, kappa)
# heavy: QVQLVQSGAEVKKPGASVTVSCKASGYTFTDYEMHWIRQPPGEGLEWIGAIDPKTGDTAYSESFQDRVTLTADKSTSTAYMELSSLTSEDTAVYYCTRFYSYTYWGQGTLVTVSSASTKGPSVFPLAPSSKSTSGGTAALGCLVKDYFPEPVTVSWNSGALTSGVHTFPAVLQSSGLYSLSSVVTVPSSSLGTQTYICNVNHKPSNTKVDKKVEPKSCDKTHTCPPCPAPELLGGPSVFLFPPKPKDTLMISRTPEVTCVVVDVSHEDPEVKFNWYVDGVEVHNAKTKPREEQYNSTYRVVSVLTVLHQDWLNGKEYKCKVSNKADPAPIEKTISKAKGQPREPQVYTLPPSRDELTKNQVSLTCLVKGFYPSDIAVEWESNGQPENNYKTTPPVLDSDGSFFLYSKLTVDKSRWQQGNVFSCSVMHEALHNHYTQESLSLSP
# light: B1 light
# notes: also called Ho Ab L328_09D
# B7: GpH7-B3 variant N325_01G/GpL16-k0 (antibody, human IgG1, kappa)
# heavy: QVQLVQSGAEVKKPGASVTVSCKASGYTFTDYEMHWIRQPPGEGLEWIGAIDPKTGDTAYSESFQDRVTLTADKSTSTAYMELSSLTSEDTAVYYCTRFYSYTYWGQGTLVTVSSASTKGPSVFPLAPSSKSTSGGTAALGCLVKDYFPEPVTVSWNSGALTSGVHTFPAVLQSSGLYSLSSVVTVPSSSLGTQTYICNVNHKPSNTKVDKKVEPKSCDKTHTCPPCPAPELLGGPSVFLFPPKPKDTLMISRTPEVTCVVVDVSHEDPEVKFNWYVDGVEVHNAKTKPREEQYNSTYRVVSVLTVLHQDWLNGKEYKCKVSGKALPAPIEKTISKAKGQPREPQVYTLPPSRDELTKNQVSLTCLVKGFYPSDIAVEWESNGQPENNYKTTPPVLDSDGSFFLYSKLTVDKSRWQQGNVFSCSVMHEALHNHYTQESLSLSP
# light: B1 light
# notes: also called Ho Ab N325_01G
# B8: GpH7-B3 variant N325_04F/GpL16-k0 (antibody, human IgG1, kappa)
# heavy: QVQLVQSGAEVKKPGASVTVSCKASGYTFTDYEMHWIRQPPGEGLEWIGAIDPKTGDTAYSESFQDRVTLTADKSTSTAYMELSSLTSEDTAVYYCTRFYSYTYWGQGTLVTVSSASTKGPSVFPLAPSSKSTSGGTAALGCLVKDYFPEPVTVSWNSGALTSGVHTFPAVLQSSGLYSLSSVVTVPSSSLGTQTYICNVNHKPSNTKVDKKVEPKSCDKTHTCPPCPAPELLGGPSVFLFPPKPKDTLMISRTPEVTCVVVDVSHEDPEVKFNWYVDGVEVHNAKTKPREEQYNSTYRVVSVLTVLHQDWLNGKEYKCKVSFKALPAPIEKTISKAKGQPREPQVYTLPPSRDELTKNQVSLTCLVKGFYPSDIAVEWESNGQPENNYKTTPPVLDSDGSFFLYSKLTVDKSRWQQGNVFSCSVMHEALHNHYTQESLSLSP
# light: B1 light
# notes: also called Ho Ab N325_04F
# B9: GpH7-B3 variant P238_15Y/GpL16-k0 (antibody, human IgG1, kappa)
# heavy: not shown
# light: B1 light
# notes: also called Ho Ab P238_15Y
# B10: GpH7-B3 variant L235_09D/GpL16-k0 (antibody, human IgG1, kappa)
# heavy: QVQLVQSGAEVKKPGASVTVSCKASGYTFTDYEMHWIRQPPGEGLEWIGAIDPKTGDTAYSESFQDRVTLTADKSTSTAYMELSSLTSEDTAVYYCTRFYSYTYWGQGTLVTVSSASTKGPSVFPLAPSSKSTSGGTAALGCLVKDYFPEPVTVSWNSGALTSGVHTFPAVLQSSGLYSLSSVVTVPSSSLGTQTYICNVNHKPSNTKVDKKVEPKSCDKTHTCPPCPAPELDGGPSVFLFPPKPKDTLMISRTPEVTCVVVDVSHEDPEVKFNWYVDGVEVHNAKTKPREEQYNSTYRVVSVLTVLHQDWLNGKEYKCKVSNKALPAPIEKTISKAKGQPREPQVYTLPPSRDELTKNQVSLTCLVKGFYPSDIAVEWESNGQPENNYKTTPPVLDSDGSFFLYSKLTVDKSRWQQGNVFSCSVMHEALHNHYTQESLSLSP
# light: B1 light
# notes: also called Ho Ab L235_09D
# B11: GpH7-B3 variant S324_06M/GpL16-k0 (antibody, human IgG1, kappa)
# heavy: not shown
# light: B1 light
# notes: also called Ho Ab S324_06M
# B12: GpH7-B3 variant P271_09D/GpL16-k0 (antibody, human IgG1, kappa)
# heavy: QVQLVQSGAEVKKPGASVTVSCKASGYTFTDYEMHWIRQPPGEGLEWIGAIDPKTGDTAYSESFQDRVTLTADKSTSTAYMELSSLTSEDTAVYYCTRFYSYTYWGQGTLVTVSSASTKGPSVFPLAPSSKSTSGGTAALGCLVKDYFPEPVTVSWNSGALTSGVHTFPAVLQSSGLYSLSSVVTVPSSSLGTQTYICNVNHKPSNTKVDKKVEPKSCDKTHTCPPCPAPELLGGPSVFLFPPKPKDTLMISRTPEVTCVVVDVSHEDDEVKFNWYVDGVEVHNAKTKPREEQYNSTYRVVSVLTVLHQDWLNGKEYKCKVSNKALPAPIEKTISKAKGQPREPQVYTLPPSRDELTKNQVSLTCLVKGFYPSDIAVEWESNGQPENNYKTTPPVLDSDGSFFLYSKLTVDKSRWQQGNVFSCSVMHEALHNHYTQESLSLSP
# light: B1 light
# notes: also called Ho Ab P271_09D
# B13: GpH7-B3 variant L235_20W/GpL16-k0 (antibody, human IgG1, kappa)
# heavy: not shown
# light: B1 light
# notes: also called Ho Ab L235_20W
# B14: GpH7-B3 variant S239_06M/GpL16-k0 (antibody, human IgG1, kappa)
# heavy: not shown
# light: B1 light
# notes: also called Ho Ab S239_06M
# B15: GpH7-B3 variant P331_10E/GpL16-k0 (antibody, human IgG1, kappa)
# heavy: not shown
# light: B1 light
# notes: also called Ho Ab P331_10E
# B16: GpH7-B3 variant L328_02A/GpL16-k0 (antibody, human IgG1, kappa)
# heavy: not shown
# light: B1 light
# notes: also called Ho Ab L328_02A
# B17: GpH7-B3 variant S267_19Q/GpL16-k0 (antibody, human IgG1, kappa)
# heavy: not shown
# light: B1 light
# notes: also called Ho Ab S267_19Q
# B18: GpH7-B3 variant T335_07I/GpL16-k0 (antibody, human IgG1, kappa)
# heavy: not shown
# light: B1 light
# notes: also called Ho Ab T335_07I
# B19: GpH7-B3 variant P238_03V/GpL16-k0 (antibody, human IgG1, kappa)
# heavy: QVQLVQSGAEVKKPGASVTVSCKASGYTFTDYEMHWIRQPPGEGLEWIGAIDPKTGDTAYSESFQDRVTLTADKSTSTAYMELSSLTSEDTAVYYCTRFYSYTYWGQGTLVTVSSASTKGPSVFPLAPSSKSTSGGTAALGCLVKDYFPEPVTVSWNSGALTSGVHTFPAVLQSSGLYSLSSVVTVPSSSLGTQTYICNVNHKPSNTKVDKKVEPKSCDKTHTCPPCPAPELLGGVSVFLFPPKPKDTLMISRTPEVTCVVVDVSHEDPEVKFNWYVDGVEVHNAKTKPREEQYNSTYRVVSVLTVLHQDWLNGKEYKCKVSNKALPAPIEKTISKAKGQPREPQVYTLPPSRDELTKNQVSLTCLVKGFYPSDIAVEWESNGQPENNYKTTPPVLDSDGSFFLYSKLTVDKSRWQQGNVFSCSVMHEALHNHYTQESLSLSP
# light: B1 light
# notes: also called Ho Ab P238_03V
# B20: GpH7-B3 variant L234_10E/GpL16-k0 (antibody, human IgG1, kappa)
# heavy: not shown
# light: B1 light
# notes: also called Ho Ab L234_10E
# B21: GpH7-B3 variant P238_20W/GpL16-k0 (antibody, human IgG1, kappa)
# heavy: not shown
# light: B1 light
# notes: also called Ho Ab P238_20W
# B22: GpH7-B3 variant N325_09D/GpL16-k0 (antibody, human IgG1, kappa)
# heavy: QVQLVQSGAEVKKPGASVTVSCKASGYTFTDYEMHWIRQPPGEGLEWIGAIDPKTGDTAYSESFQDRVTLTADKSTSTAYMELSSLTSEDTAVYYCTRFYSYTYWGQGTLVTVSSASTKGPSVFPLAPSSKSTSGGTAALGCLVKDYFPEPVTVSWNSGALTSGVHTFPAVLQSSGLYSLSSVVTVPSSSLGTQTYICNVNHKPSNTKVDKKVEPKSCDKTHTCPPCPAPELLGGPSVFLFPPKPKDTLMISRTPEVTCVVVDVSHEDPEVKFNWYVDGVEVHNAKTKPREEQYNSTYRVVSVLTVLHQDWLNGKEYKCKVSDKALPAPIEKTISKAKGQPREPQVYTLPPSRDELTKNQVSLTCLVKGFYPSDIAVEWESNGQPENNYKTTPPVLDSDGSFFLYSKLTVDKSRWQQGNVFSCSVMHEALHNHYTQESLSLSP
# light: B1 light
# notes: also called Ho Ab N325_09D
# B23: GpH7-B3 variant S239_03V/GpL16-k0 (antibody, human IgG1, kappa)
# heavy: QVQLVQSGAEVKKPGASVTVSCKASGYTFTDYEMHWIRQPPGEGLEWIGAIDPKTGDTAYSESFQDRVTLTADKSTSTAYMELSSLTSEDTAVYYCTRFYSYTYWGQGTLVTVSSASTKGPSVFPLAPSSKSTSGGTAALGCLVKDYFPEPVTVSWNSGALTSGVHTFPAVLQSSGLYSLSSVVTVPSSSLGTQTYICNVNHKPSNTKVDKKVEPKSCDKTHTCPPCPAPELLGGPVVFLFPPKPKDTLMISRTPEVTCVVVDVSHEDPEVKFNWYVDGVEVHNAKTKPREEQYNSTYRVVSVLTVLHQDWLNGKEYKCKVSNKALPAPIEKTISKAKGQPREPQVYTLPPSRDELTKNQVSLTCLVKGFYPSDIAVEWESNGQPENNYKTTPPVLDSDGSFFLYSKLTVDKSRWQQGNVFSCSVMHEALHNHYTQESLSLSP
# light: B1 light
# notes: also called Ho Ab S239_03V
# B24: GpH7-B3 variant S337_20W/GpL16-k0 (antibody, human IgG1, kappa)
# heavy: not shown
# light: B1 light
# notes: also called Ho Ab S337_20W
# B25: GpH7-B3 variant S337_07I/GpL16-k0 (antibody, human IgG1, kappa)
# heavy: not shown
# light: B1 light
# notes: also called Ho Ab S337_07I
# B26: GpH7-B3 variant N325_06M/GpL16-k0 (antibody, human IgG1, kappa)
# heavy: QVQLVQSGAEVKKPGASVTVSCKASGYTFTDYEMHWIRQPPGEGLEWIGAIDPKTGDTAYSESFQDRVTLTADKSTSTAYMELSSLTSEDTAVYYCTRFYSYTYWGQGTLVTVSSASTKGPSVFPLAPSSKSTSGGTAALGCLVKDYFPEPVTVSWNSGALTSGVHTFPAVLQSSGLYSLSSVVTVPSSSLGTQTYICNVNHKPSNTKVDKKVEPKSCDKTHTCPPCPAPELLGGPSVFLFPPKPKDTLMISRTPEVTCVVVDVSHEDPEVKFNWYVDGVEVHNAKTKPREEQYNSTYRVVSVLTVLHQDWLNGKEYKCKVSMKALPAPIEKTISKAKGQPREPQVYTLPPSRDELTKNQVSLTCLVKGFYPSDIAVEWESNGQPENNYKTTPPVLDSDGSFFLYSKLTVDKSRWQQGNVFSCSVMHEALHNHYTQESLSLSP
# light: B1 light
# notes: also called Ho Ab N325_06M
# B27: GpH7-B3 variant S239_10E/GpL16-k0 (antibody, human IgG1, kappa)
# heavy: not shown
# light: B1 light
# notes: also called Ho Ab S239_10E
# B28: GpH7-B3 variant L235_04F/GpL16-k0 (antibody, human IgG1, kappa)
# heavy: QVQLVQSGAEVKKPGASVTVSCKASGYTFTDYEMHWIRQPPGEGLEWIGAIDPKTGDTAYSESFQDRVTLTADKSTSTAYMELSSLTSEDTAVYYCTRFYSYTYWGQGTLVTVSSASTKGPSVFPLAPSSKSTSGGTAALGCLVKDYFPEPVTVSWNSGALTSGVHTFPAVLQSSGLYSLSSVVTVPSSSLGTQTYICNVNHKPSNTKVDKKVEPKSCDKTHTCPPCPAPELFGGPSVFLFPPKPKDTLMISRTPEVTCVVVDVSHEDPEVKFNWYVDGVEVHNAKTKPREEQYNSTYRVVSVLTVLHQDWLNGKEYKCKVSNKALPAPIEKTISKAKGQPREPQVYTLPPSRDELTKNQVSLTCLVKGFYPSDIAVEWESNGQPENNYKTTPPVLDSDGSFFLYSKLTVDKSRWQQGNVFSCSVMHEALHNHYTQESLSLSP
# light: B1 light
# notes: also called Ho Ab L235_04F
# Target: T1, FcγRIIb extracellular domain with …
# Assay: SPR (Biacore), relative binding
# Procedure: Analysis of interaction between objective antibody and the FcγR was carried out using Biacore T100 (GE Healthcare). HBS-EP+ (GE Healthcare) was used as the running buffer, and the measurement temperature was set to 25° C. Chips produced by immobilizing the antigen peptide by the amine coupling method to a Series S Sencor Chip CM5 (GE Healthcare), or alternatively, chips produced by allowing preliminarily biotinylated antigen peptides to interact with and immobilize onto a Series S Sensor Chip SA (certified) (GE Healthcare) were used. Antibodies of interest were captured onto an antigen peptide-immobilized chip, and allowed to interact to each FcγR diluted with running buffer. To regenerate and repeatedly use the chip, the antibodies captured on the chip were washed off by reacting 10 mM glycine-HCl, pH 1.5.
row,Ho/Con_2b,Binder
1,86.6 % of HoCon Ab GpH7-B3/GpL16-k0,B1
2,44 % of HoCon Ab GpH7-B3/GpL16-k0,B2
3,100 % of HoCon Ab GpH7-B3/GpL16-k0,B3
4,97.9 % of HoCon Ab GpH7-B3/GpL16-k0,B4
5,63.3 % of HoCon Ab GpH7-B3/GpL16-k0,B5
6,159 % of HoCon Ab GpH7-B3/GpL16-k0,B6
7,20.2 % of HoCon Ab GpH7-B3/GpL16-k0,B7
8,65.7 % of HoCon Ab GpH7-B3/GpL16-k0,B8
9,114 % of HoCon Ab GpH7-B3/GpL16-k0,B9
10,78.7 % of HoCon Ab GpH7-B3/GpL16-k0,B10
11,104 % of HoCon Ab GpH7-B3/GpL16-k0,B11
12,100 % of HoCon Ab GpH7-B3/GpL16-k0,B12
13,116 % of HoCon Ab GpH7-B3/GpL16-k0,B13
14,84.3 % of HoCon Ab GpH7-B3/GpL16-k0,B14
15,92.3 % of HoCon Ab GpH7-B3/GpL16-k0,B15
16,117 % of HoCon Ab GpH7-B3/GpL16-k0,B16
17,185 % of HoCon Ab GpH7-B3/GpL16-k0,B17
18,104 % of HoCon Ab GpH7-B3/GpL16-k0,B18
19,96.6 % of HoCon Ab GpH7-B3/GpL16-k0,B19
20,54.9 % of HoCon Ab GpH7-B3/GpL16-k0,B20
21,12.6 % of HoCon Ab GpH7-B3/GpL16-k0,B21
22,77 % of HoCon Ab GpH7-B3/GpL16-k0,B22
23,108 % of HoCon Ab GpH7-B3/GpL16-k0,B23
24,99.6 % of HoCon Ab GpH7-B3/GpL16-k0,B24
25,96.6 % of HoCon Ab GpH7-B3/GpL16-k0,B25
26,159 % of HoCon Ab GpH7-B3/GpL16-k0,B26
27,175 % of HoCon Ab GpH7-B3/GpL16-k0,B27
28,111 % of HoCon Ab GpH7-B3/GpL16-k0,B28
